Assay results reported in patent publication CN115073593A (SHANGHAI JUNSHI BIOSCIENCES CO LTD; JUNMENG BIOSCIENCES CO …, dated 2022).
Residue numbers refer to the chain shown, from its start.

B1: JS016-40 (antibody, V domains shown)
VH: EVQLVESGGGLVQPGGSLRLSCAASGFTVGWNYMSWVRQAPGKGLEWVSVIYPGGTTFYADSVKGRFTISRDNSMNTLFLQMNSLRAEDTAVYYCARVLPMYGDYLDYWGQGTLVTVSS
VL: DIVMTQSPSSLSASVGDRVTITCRASQNIERYLNWYQQKPGKAPKLLIYAASSLQSGVPSRFSGSGSGTDFTLTISSLQPEDFATYYCQQSASSTPEYTFGQGTKLEIKR
B2: JS016-41-YTE (antibody, V domains shown)
VH: B1 VH with T28V, G30Q, W31A, T56S
VL: B1 VL
B3: JS016-77-YTE (antibody, V domains shown)
VH: B1 VH with T28V, G30Q, W31A, T56S
VL: B1 VL with E30L, R31P, A92S, S94A, T95V

Target: SARS-CoV-2 omicron突变株假病毒 (SARS-CoV-2 omicron variant)
Test: cell-based or functional assay

Binder | IC50(ng/ml), pseudovirus neutralisation, luciferase reporter
B1 | 24.6 ng/mL
B2 | 17.6 ng/mL
B3 | 776 ng/mL
